Experimental data reported in the RNAGym collection of RNA variant scans (doi:10.1021/acssynbio.7b00057).

B1: Pistol ribozyme (parent)
chain: GGGUCGUUGUUCCAUAAUCGCGUGGAUAUGGCACGCAAGUUUCUACCGGGCACCGUAAAUGUCCGACUGGAGCCGUUCGGGCGGCUAUAAACAGACCUCAGGCCCGAAGCGUGGCGGCACCUGCCGCCGGUGGUAAAAAAGAUCGGAAGAGCACACGUCU

Variants of: B1
Assay: aptazyme ON/OFF ratio, guanine; higher = stronger switching; co-transcriptional cleavage with and without guanine

Variant	aptazyme ON/OFF ratio
U7C U8C U10G C13U	1.12
U7C U8C U10G C13A	1.13
U7C U8C U10G C12U C13G	1.1
U7C U8C U10G C12U C13U	1.13
U7C U8C U10G C12U C13A	1.08
U7C U8G G9A U10A U11A	1.31
U7C U8G G9A U10A U11C	1.04
U7C U8C U10G U11A C13A	1.21
U7C U8C U10G U11A C13G	1.14
U7C U8C U10G U11A C13U	1.15
U7C U8C U10G U11C C12A C13A	1.16
U7C U8C U10G U11C C12A C13U	1.15
U7C U8C U10G U11C C12A C13G	1.11
U7C U8C U11C C13G	1.12
U7C U8C U11C C13U	1.3
U7C U8C U11C C13A	1.24
U7C U8C U10C U11C C13G	1.28
U7C U8C U10C U11C C13A	1.31
U7C U8C U10C U11C C13U	1.38
U7C U8C U10A U11A C12G C13U	1.11
U7C U8C U10A U11A C12G C13A	1.14
U7C U8C U10A U11A C12G C13G	1.21
U7C U8C G9U U11C C13G	1.02
U7C U8C G9U U11C C13U	1.02

Variant	aptazyme ON/OFF ratio
U7C U8G C13G	1.16
U7C U8G C13U	2.24
U7C U8G C13A	1.25
U7C U8C U10C U11G C12U	1.2
U7C U8C U10C U11G C12G	1.18
U7C U8C U10C U11G C12A	1.38
U7C U8C U10A U11C C12G C13G	1.22
U7C U8C U10A U11C C12G C13U	1.29
U7C U8C U10A U11C C12G C13A	1.22
U7C U8C U10A C13G	1.05
U7C U8C U10A C13A	1.06
U7C U8C U10A C13U	1.04
U7C U8C U10G U11C C13G	1.16
U7C U8C U10G U11C C13A	1.37
U7C U8C U10G U11C C13U	1.16
U7C U8C U11C C12G	1.16
U7C U8C U11C C12A	1.33
U7C U8C U11C C12U	1.34
U7C U8C U10G C12U	1.11
U7C U8C U10G C12A	1.13
U7C U8C U10G C12G	1.12
U7C U8C U10C C12G	1.16
U7C U8C U10C C12A	1.39
U7C U8C U10C C12U	1.36

Variant	aptazyme ON/OFF ratio
U7C U8C G9U U11G C12A	1.19
U7C U8C G9U U11G C12G	1.19
U7C U8C G9U U11G C12U	1.19
U7C U8G G9A C12A C13A	1.28
U7C U8G G9A C12A C13G	1.16
U7C U8G G9A C12A C13U	1.29
U7C U8G G9A U10A C12A C13A	1.17
U7C U8G G9A U10A C12A C13U	1.19
U7C U8G G9A U10A C12A C13G	1.1
U7C U8C G9U U11G C12A C13U	1.14
U7C U8C G9U U11G C12A C13G	1.11
U7C U8C G9U U11G C12A C13A	1.19
U7C U8C U11C C12A C13G	1.18
U7C U8C U11C C12A C13U	1.28
U7C U8C U11C C12A C13A	1.3
U7C U8C U10G U11G C12A C13U	1.13
U7C U8C U10G U11G C12A C13A	1.14
U7C U8C U10G U11G C12A C13G	1.11
U7C U8G G9A U10A U11C C12U	1.05
U7C U8G G9A U10A U11C C12G	1.25
U7C U8G G9A U10A U11C C12A	1.21
U7C U8C U10C C13U	2.08
U7C U8C U10C C13A	1.24
U7C U8C U10C C13G	1.24

Variant	aptazyme ON/OFF ratio
U7C U8C U10A U11G C12A C13U	1.12
U7C U8C U10A U11G C12A C13G	1.11
U7C U8C U10A U11G C12A C13A	1.06
U7C U8C U11G C12A C13U	1.2
U7C U8C U11G C12A C13G	1.11
U7C U8C U11G C12A C13A	1.14
U7C U8G G9A U10A U11C C12G C13U	1.45
U7C U8G G9A U10A U11C C12G C13A	1.32
U7C U8G G9A U10A U11C C12G C13G	1.34
U7C U8C G9U U11G C13A	1.21
U7C U8C G9U U11G C13U	1.16
U7C U8C G9U U11G C13G	1.05
U7C U8G C12A C13G	1.08
U7C U8G C12A C13U	1.27
U7C U8G C12A C13A	1.22
U7C U8C U10A U11C C12A C13A	1.13
U7C U8C U10A U11C C12A C13G	1.16
U7C U8C U10A U11C C12A C13U	1.15
U7C U8G G9A C12G C13U	1.21
U7C U8G G9A C12G C13A	1.15
U7C U8G G9A C12G C13G	1.12
U7C U8C U10G U11A C12A	1.3
U7C U8C U10G U11A C12U	1.12
U7C U8C U10G U11A C12G	1.14

Variant	aptazyme ON/OFF ratio
U7C U8C U10G U11A C12A C13A	1.11
U7C U8C U10G U11A C12A C13U	1.25
U7C U8C U10G U11A C12A C13G	1.12
U7C U8C U10A U11G C12G C13G	1.22
U7C U8C U10A U11G C12G C13A	1.25
U7C U8C U10A U11G C12G C13U	1.14
U7C U8G G9A	1.12
U7C U8C U10C U11C C12G C13U	1.31
U7C U8C U10C U11C C12G C13G	1.3
U7C U8C U10C U11C C12G C13A	1.1
U7C U8G G9A U10A U11A C13G	1.07
U7C U8G G9A U10A U11A C13U	1.12
U7C U8G G9A U10A U11A C13A	1.12
U7C U8C U10A U11A C12U C13A	1.13
U7C U8C U10A U11A C12U C13G	1.28
U7C U8C U10A U11A C12U C13U	1.16
U7C U8C U10A C12G C13A	1.12
U7C U8C U10A C12G C13U	1.07
U7C U8C U10A C12G C13G	1.12
U7C U8C U10G U11C C12G C13A	1.17
U7C U8C U10G U11C C12G C13U	1.17
U7C U8C U10G U11C C12G C13G	1.13
U7C U8C U10C C12U C13G	1.34
U7C U8C U10C C12U C13U	1.45

Variant	aptazyme ON/OFF ratio
U7C U8C U10C C12U C13A	1.35
U7C U8G G9A U10A C12U C13G	1.17
U7C U8G G9A U10A C12U C13U	1.27
U7C U8G G9A U10A C12U C13A	1.18
U7C U8C U10C U11G C12G C13G	1.13
U7C U8C U10C U11G C12G C13A	1.15
U7C U8C U10C U11G C12G C13U	1.1
U7C U8C U10G U11A C12U C13A	1.16
U7C U8C U10G U11A C12U C13G	1.1
U7C U8C U10G U11A C12U C13U	1.21
U7C U8C U11G C12U C13G	1.11
U7C U8C U11G C12U C13U	1.22
U7C U8C U11G C12U C13A	1.14
U7C U8C U10G U11G C12U C13G	1.12
U7C U8C U10G U11G C12U C13U	1.08
U7C U8C U10G U11G C12U C13A	1.1
U7C U8G G9A U10A U11A C12U	1.18
U7C U8G G9A U10A U11A C12G	1.1
U7C U8G G9A U10A U11A C12A	1.26
U7C U8C U10A U11A	1.63
U7C U8C U10A U11G	1.37
U7C U8C U10A U11C	1.03
U7C U8G G9A C12U C13U	1.22
U7C U8G G9A C12U C13A	1.16

Variant	aptazyme ON/OFF ratio
U7C U8G G9A C12U C13G	1.35
U7C U8C G9U U11G	1.16
U7C U8C U10C U11G C12U C13A	1.28
U7C U8C U10C U11G C12U C13U	1.3
U7C U8C U10C U11G C12U C13G	1.23
U7C U8C U10A C12G	1.08
U7C U8C U10A C12A	1.06
U7C U8C U10A C12U	1.12
U7C U8C U10A U11C C13G	1.1
U7C U8C U10A U11C C13A	1.07
U7C U8C U10A U11C C13U	1.03
U7C U8C U10A U11G C13U	1.18
U7C U8C U10A U11G C13G	1.18
U7C U8C U10A U11G C13A	1.25
U7C U8C U10A U11A C13U	1.29
U7C U8C U10A U11A C13A	1.26
U7C U8C U10A U11A C13G	1.14
U7C U8C U11A C13A	1.21
U7C U8C U11A C13U	1.27
U7C U8C U11A C13G	1.19
U7C U8G G9A U10A C12G C13G	1.46
U7C U8G G9A U10A C12G C13A	1.11
U7C U8G G9A U10A C12G C13U	1.31
